Here are results for four molecules from publication PMC6138639, “The ZZ-type zinc finger of ZZZ3 modulates the ATAC complex-mediated histone acetylation and gene activation” (Nature Communications, 2018).

Where no end group is shown, it is not given here.

Settings in all cases: both partners purified
For assay [1], the target named is T1, GST-ZZZ3 ZZ domain (amino acids 800–903) (human, UniProt Q8IYH5 800-903).
T1 construct: ZZ-type zinc finger domain of human ZZZ3, amino acids 800–903, in pGEX-6P1; also called GST-fused ZZZ3 ZZ; source: E. coli BL21 (DE3) RIL, purified (glutathione Sepharose 4B)
T1 sequence (looked up): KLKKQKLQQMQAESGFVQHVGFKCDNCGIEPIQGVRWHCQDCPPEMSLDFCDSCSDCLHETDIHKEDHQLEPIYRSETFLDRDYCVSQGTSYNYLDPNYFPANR
In words: pull-down; peptide pulldown: 1 µg biotinylated histone peptide with 1–2 µg GST-fused protein in 50 mM Tris–HCl 7.5, 300 mM NaCl, 0.1% NP-40, overnight; streptavidin beads; western blot.

The target of assay [2] is T2, ZZZ3 ZZ domain (aa 816–874) (human, UniProt Q8IYH5 816-874).
T2 construct: 13C/15N isotope-labelled sample for the NMR structures
T2 sequence (looked up): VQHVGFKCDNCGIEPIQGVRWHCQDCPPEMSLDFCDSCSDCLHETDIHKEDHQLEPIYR
As to the kind of experiment: NMR structure; solution structure; 2 mM 13C/15N-labeled ZZZ3 (816–874) with 10 mM H3 (1–12) or 4 mM H3K4ac (1–8); 298 K; 20 mM Tris–HCl pH 7.0, 100 mM NaCl, 5 mM DTT.

The target in assay [3] is T3, ZZZ3 ZZ domain (aa 800–903), GST cleaved (human, UniProt Q8IYH5 800-903).
T3 construct: ZZ domain of human ZZZ3, aa 800–903; also called WT ZZZ3 ZZ; source: E. coli BL21 (DE3) RIL, purified (glutathione Sepharose, PreScission cleavage, size-exclusion chromatography)
T3 sequence (looked up): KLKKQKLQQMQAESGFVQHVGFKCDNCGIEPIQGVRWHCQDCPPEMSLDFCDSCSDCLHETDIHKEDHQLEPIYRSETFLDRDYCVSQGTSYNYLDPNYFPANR
In words: MST; displacement assay: unlabeled peptide added to a preformed complex of 5 μM ZZ (aa 800–903) and 80 nM C-terminal fluorescein-labeled H3 (1–12); 20 mM Tris–HCl pH 7.0, 150 mM NaCl, 3 mM DTT.

B1: histone H3 peptide of the N-terminal eight amino acids, biotinylated (peptide, UniProt P68431 2-9, looked up)
peptide: ARTKQTAR
modifications: also: biotinylated, position not given here
notes: histone H3, N-terminal eight amino acids; also called The N-terminal eight amino acids of H3; source: synthetic peptide (CPC and Scilight Biotechnology)
With B1, in assay [1], the binding result is on record as “binds”.

B2: H3K4ac peptide (aa 1–8) (peptide, UniProt P68431 2-9, looked up)
peptide: ARTK(Ac)QTAR
notes: histone H3, aa 1–8; also called H3K4ac (1–8); source: synthetic peptide
For the molecule B2, in assay [2], the binding result is listed as “binds”.

B3: H3K4ac (1–12) peptide, unlabeled (peptide, UniProt P68431 2-13, looked up)
peptide: ARTK(Ac)QTARKSTG
notes: histone H3, aa 1–12; source: synthetic peptide
As for B3, the “fold enhancement of binding over the unmodified H3 peptide” value in assay [3] worked out at 3 fold.

B4: unmodified histone H3 tail peptide (aa 1–12) (peptide, UniProt P68431 2-13, looked up)
peptide: ARTKQTARKSTG
notes: histone H3, aa 1–12; also called H3 (1–12); H3 peptide; source: synthetic peptide
B4: the binding result in assay [2] and in assay [3] was “binds” each time.
